This note sets out measurements from paper PMC4601788.

Data set [1] deals with rLiPABP (poly(A)-binding protein) (Leishmania infantum) (UniProt A4IBV3). As to the kind of experiment: ELONA.
The target of data set [2] is Flag-LiPABP (Leishmania infantum) (UniProt A4IBV3). As to the kind of experiment: pull-down.
Data set [3] has as its target Myc-LiPABP (Leishmania infantum) (UniProt A4IBV3). Kind of data set: competition.
For data set [4], the target named is endogenous LiPABP (eLiPABP) (Leishmania infantum) (UniProt A4IBV3). Kind of data set: competition.

In the case of “GCGGATGAAGACTGGTGTGGACAGTTCTACGAGGATTACGCTGTTACTAAGTGTGGGGGCCCTAAATACGAGCAAC [ApPABP#3]”, the Kd in data set [1] worked out at 5.4 nM. This sequence also showed a binding signal (% of total Flag-LiPABP recovered) in data set [2] of over 75.

For the sequence “GCGGATGAAGACTGGTGTCCAGAGTGAACACAAAGAAATTGAAATACGTAAGCTCCGGGCCCTAAATACGAGCAAC [ApPABP#7]”, the Kd in data set [1] was found to be 6 nM. The sequence also registered a binding signal (% of total Flag-LiPABP recovered) in data set [2] of over 75.

For “GTTGCTCGTATTTAGGGCGGCCCCCTCCTCCCTCCCCCACCCGACACTATTCCCCCCCACACCAGTCTTCATCCGC [ApPABP#11]”, the binding signal (% reduction of poly(A) binding) is 80 in data set [3] and 30 in data set [4]. Besides, in data set [1], the Kd amounted to 10.8 nM. Also, the binding signal (% of total Flag-LiPABP recovered) in data set [2] is under 50.
